Reference: US20100216715A1 (Novo Nordisk, published 2010)

T1: human beta-Klotho (human, UniProt Q86Z14 1-1044)
T1 sequence (looked up): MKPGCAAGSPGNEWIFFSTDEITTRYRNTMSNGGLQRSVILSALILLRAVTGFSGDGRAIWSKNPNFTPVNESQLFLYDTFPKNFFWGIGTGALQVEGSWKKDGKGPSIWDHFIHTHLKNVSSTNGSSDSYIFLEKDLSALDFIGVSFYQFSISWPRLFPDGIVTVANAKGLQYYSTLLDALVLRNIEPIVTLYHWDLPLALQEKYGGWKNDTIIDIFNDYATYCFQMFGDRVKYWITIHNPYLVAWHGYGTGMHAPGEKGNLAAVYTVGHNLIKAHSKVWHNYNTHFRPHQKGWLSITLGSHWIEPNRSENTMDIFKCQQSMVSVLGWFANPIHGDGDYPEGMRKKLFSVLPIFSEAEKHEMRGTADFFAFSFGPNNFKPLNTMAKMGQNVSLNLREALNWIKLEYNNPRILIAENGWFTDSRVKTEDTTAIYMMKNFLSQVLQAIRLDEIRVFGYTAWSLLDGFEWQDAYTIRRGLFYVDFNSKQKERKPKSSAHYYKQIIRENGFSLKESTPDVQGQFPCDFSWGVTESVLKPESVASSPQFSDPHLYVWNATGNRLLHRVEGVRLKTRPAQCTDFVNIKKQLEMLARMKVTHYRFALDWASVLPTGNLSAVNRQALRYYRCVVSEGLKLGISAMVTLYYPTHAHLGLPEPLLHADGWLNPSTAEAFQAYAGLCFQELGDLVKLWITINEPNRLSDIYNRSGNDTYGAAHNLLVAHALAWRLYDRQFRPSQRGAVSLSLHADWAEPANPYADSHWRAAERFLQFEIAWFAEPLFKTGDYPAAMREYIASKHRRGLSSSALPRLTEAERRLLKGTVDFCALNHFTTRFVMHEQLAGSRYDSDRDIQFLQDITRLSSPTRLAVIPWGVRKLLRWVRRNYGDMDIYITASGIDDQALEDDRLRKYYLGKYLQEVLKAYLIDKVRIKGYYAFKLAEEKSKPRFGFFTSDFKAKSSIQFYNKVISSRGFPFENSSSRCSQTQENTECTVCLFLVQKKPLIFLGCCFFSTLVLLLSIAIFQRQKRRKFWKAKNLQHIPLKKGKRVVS

B1: (M168S) Ser-FGF21 (ligand)
chain: SHPIPDSSPLLQFGGQVRQRYLYTDDAQQTEAHLEIREDGTVGGAADQSPESLLQLKALKPGVIQILGVKTSRFLCQRPDGALYGSLHFDPEACSFRELLLEDGYNVYQSEAHGLPLHLPGNKSPHRDPAPRGPARFLPLPGLPPALPEPPGILAPQPPDVGSSDPLSSVGPSQGRSPSYAS
B2: Gly-FGF21 (ligand)
chain: GHPIPDSSPLLQFGGQVRQRYLYTDDAQQTEAHLEIREDGTVGGAADQSPESLLQLKALKPGVIQILGVKTSRFLCQRPDGALYGSLHFDPEACSFRELLLEDGYNVYQSEAHGLPLHLPGNKSPHRDPAPRGPARFLPLPGLPPALPEPPGILAPQPPDVGSSDPLSMVGPSQGRSPSYAS
B3: Gly-FGF21-M168L (ligand)
chain: GHPIPDSSPLLQFGGQVRQRYLYTDDAQQTEAHLEIREDGTVGGAADQSPESLLQLKALKPGVIQILGVKTSRFLCQRPDGALYGSLHFDPEACSFRELLLEDGYNVYQSEAHGLPLHLPGNKSPHRDPAPRGPARFLPLPGLPPALPEPPGILAPQPPDVGSSDPLSLVGPSQGRSPSYAS
B4: (K56R, K59R, K69R, K122R) FGF21 (ligand)
chain: HPIPDSSPLLQFGGQVRQRYLYTDDAQQTEAHLEIREDGTVGGAADQSPESLLQLRALRPGVIQILGVRTSRFLCQRPDGALYGSLHFDPEACSFRELLLEDGYNVYQSEAHGLPLHLPGNRSPHRDPAPRGPARFLPLPGLPPALPEPPGILAPQPPDVGSSDPLSMVGPSQGRSPSYAS
B5: (K56R, K59R, K69R, N121Q, K122R, L166F, S167G, M168L, 169aT, P171L, S172E, Q173A, G174V, Y179F, A180E, S181R) FGF21 (ligand)
chain: HPIPDSSPLLQFGGQVRQRYLYTDDAQQTEAHLEIREDGTVGGAADQSPESLLQLRALRPGVIQILGVRTSRFLCQRPDGALYGSLHFDPEACSFRELLLEDGYNVYQSEAHGLPLHLPGQRSPHRDPAPRGPARFLPLPGLPPALPEPPGILAPQPPDVGSSDPFGLVTGLEAVRSPSFER
B6: (K56R, K59R, K69R, D102E, N121Q, K122R, M168L) GSGSG-FGF21 (ligand)
chain: GSGSGHPIPDSSPLLQFGGQVRQRYLYTDDAQQTEAHLEIREDGTVGGAADQSPESLLQLRALRPGVIQILGVRTSRFLCQRPDGALYGSLHFDPEACSFRELLLEEGYNVYQSEAHGLPLHLPGQRSPHRDPAPRGPARFLPLPGLPPALPEPPGILAPQPPDVGSSDPLSLVGPSQGRSPSYAS
B7: [-5G, -4S, -3G, -2S, -1G, K56R, 59R, 69R, 102E, 121Q, 122R, 168L] FGF21 derivative of Example 52 (ligand)
chain: GSGSGHPIPDSSPLLQFGGQVRQRYLYTDDAQQTEAHLEIREDGTVGGAADQSPESLLQLRALRPGVIQILGVRTSRFLCQRPDGALYGSLHFDPEACSFRELLLEEGYNVYQSEAHGLPLHLPGQRSPHRDPAPRGPARFLPLPGLPPALPEPPGILAPQPPDVGSSDPLSLVGPSQGRSPSYAS
modifications: N-alpha-1-[2-(2-{2-[2-(2-{2-[(S)-4-carboxy-4-(17-carboxy-heptadecanoylamino)-butyrylamino]-ethoxy}-ethoxy)-acetylamino]-ethoxy}-ethoxy)-acetyl] on the N-terminal alpha amino group
B8: (-5G, -4S, -3G, -2S, -1G, K56R, 59R, 69R, 102E, 121Q, 122R, 168L) FGF21 derivative of Example 55 (ligand)
chain: GSGSGHPIPDSSPLLQFGGQVRQRYLYTDDAQQTEAHLEIREDGTVGGAADQSPESLLQLRALRPGVIQILGVRTSRFLCQRPDGALYGSLHFDPEACSFRELLLEEGYNVYQSEAHGLPLHLPGQRSPHRDPAPRGPARFLPLPGLPPALPEPPGILAPQPPDVGSSDPLSLVGPSQGRSPSYAS
modifications: N-alpha-1-[4-(16-1H-tetrazol-5-yl-hexadecanoylsulfamoyl)-butyryl] on the N-terminal alpha amino group
B9: (Q15F, K56R, K59R, K69R, D102T, N121Q, K122R, Y179F, A180E, S181R) Gly-FGF21 (ligand)
chain: GHPIPDSSPLLQFGGFVRQRYLYTDDAQQTEAHLEIREDGTVGGAADQSPESLLQLRALRPGVIQILGVRTSRFLCQRPDGALYGSLHFDPEACSFRELLLETGYNVYQSEAHGLPLHLPGQRSPHRDPAPRGPARFLPLPGLPPALPEPPGILAPQPPDVGSSDPLSMVGPSQGRSPSFER
B10: (L166F, S167G, M168L, 169aT, P171L, S172E, Q173A, G174V, Y179F, A180E, S181K) Ser-FGF21 (ligand)
chain: SHPIPDSSPLLQFGGQVRQRYLYTDDAQQTEAHLEIREDGTVGGAADQSPESLLQLKALKPGVIQILGVKTSRFLCQRPDGALYGSLHFDPEACSFRELLLEDGYNVYQSEAHGLPLHLPGNKSPHRDPAPRGPARFLPLPGLPPALPEPPGILAPQPPDVGSSDPFGLVTGLEAVRSPSFEK
B11: (-1A, 71C, 121Q, 166F, 167G, 168L, 169aT, 171L, 172E, 173A, 174V, 179F, 180E, 181K) FGF21 derivative of Example 17 (ligand)
chain: AHPIPDSSPLLQFGGQVRQRYLYTDDAQQTEAHLEIREDGTVGGAADQSPESLLQLKALKPGVIQILGVKTCRFLCQRPDGALYGSLHFDPEACSFRELLLEDGYNVYQSEAHGLPLHLPGQKSPHRDPAPRGPARFLPLPGLPPALPEPPGILAPQPPDVGSSDPFGLVTGLEAVRSPSFEK
modifications: S-71-({2-[2-(2-{2-[2-(2-{2-[(S)-4-carboxy-4-(17-carboxy-heptadecanoylamino)-butyrylamino]-ethoxy}-ethoxy)-acetylamino]-ethoxy}-ethoxy)-acetylamino]-ethylcarbamoyl}-methyl) on the thiol of Cys71
B12: (K56R, K59R, K69R, K122R, L166F, S167G, M168L, 169aT, P171L, S172E, Q173A, G174V, Y179F, A180E, S181R) Ser-FGF21 (ligand)
chain: SHPIPDSSPLLQFGGQVRQRYLYTDDAQQTEAHLEIREDGTVGGAADQSPESLLQLRALRPGVIQILGVRTSRFLCQRPDGALYGSLHFDPEACSFRELLLEDGYNVYQSEAHGLPLHLPGNRSPHRDPAPRGPARFLPLPGLPPALPEPPGILAPQPPDVGSSDPFGLVTGLEAVRSPSFER
B13: (S71C, L166F, S167G, M168L, 169aT, P171L, S172E, Q173A, G174V, Y179F, A180E, S181K) Ser-FGF21 (ligand)
chain: SHPIPDSSPLLQFGGQVRQRYLYTDDAQQTEAHLEIREDGTVGGAADQSPESLLQLKALKPGVIQILGVKTCRFLCQRPDGALYGSLHFDPEACSFRELLLEDGYNVYQSEAHGLPLHLPGNKSPHRDPAPRGPARFLPLPGLPPALPEPPGILAPQPPDVGSSDPFGLVTGLEAVRSPSFEK
B14: (-1S, 71C, 166F, 167G, 168L, 169aT, 171L, 172E, 173A, 174V, 179F, 180E, 181K) FGF21 derivative of Example 18 (ligand)
chain: SHPIPDSSPLLQFGGQVRQRYLYTDDAQQTEAHLEIREDGTVGGAADQSPESLLQLKALKPGVIQILGVKTCRFLCQRPDGALYGSLHFDPEACSFRELLLEDGYNVYQSEAHGLPLHLPGNKSPHRDPAPRGPARFLPLPGLPPALPEPPGILAPQPPDVGSSDPFGLVTGLEAVRSPSFEK
modifications: S-71-({2-[2-(2-{2-[2-(2-{2-[(S)-4-carboxy-4-(17-carboxy-heptadecanoylamino)-butyrylamino]-ethoxy}-ethoxy)-acetylamino]-ethoxy}-ethoxy)-acetyl-amino]-ethylcarbamoyl}-methyl) on the thiol of Cys71
B15: (K56R, 59R, 69R, 122R, 166F, 167G, 168L, 169aT, 171L, 172E, 173A, 174V, 179F, 180E, 181R) Ser-FGF21 derivative of Example 50 (ligand)
chain: SHPIPDSSPLLQFGGQVRQRYLYTDDAQQTEAHLEIREDGTVGGAADQSPESLLQLRALRPGVIQILGVRTSRFLCQRPDGALYGSLHFDPEACSFRELLLEDGYNVYQSEAHGLPLHLPGNRSPHRDPAPRGPARFLPLPGLPPALPEPPGILAPQPPDVGSSDPFGLVTGLEAVRSPSFER
modifications: N-alpha-1-[2-(2-{2-[2-(2-{2-[(S)-4carboxy-4-(17-carboxy-heptadecanoylamino)-butyrylamino]-ethoxy}-ethoxy)-acetylamino]-ethoxy}-ethoxy)-acetyl] on the N-terminal alpha amino group

target: T1, human beta-Klotho; test: cell-based or functional assay

Compared with B1, B2 is lower in “pERK-HEK293-Beta-klotho without HSA [EC50 (nM)] Median Value” (“pERK-HEK293-Beta-klotho without HSA” below): 100 nM for the first, 2.1 nM for the second.

First: B3
Second: B4
The “pERK-HEK293-Beta-klotho without HSA” value of the first is lower: 1.8 nM for the first, 12 nM for the second.

Compared with B5, B6 is higher in “pERK-HEK293-Beta-klotho without HSA” value: 3 nM for the first, 6.6 nM for the second.

Going from B7 to B8, the “pERK-HEK293-Beta-klotho without HSA” value falls from 11 nM to 2 nM.

Going from B9 to B10, the “pERK-HEK293-Beta-klotho without HSA” value falls from 75 nM to 1 nM.

Compared with B11, B12 is higher in “pERK-HEK293-Beta-klotho without HSA” value: 3 nM for the first, 3.8 nM for the second.

Compared with B13, B14 is higher in “pERK-HEK293-Beta-klotho without HSA” value: 2.2 nM for the first, 2.5 nM for the second.

With B15 the “pERK-HEK293-Beta-klotho without HSA” value was 2 nM.
